Laboratory results: ChEMBL document CHEMBL2074458, “Fluorescence-based assay for the interaction of small molecules with the human renal organic anion transporter 1” (Anal Biochem, 2000)

Substrate: O=C(O)c1ccc(C(=O)O)c(-c2c3ccc(=O)cc-3oc3cc(O)ccc23)c1
Experiment: TP_TRANSPORTER: uptake in OAT1-expressing CHO cells
Type: functional, cell-based

B1: Solute carrier family 22 member 6 (Homo sapiens) (protein)
chain: MAFNDLLQQVGGVGRFQQIQVTLVVLPLLLMASHNTLQNFTAAIPTHHCRPPADANLSKNGGLEVWLPRDRQGQPESCLRFTSPQWGLPFLNGTEANGTGATEPCTDGWIYDNSTFPSTIVTEWDLVCSHRALRQLAQSLYMVGVLLGAMVFGYLADRLGRRKVLILNYLQTAVSGTCAAFAPNFPIYCAFRLLSGMALAGISLNCMTLNVEWMPIHTRACVGTLIGYVYSLGQFLLAGVAYAVPHWRHLQLLVSAPFFAFFIYSWFFIESARWHSSSGRLDLTLRALQRVARINGKREEGAKLSMEVLRASLQKELTMGKGQASAMELLRCPTLRHLFLCLSMLWFATSFAYYGLVMDLQGFGVSIYLIQVIFGAVDLPAKLVGFLVINSLGRRPAQMAALLLAGICILLNGVIPQDQSIVRTSLAVLGKGCLAASFNCIFLYTGELYPTMIRQTGMGMGSTMARVGSIVSPLVSMTAELYPSMPLFIYGAVPVAASAVTVLLPETLGQPLPDTVQDLESRWAPTQKEAGIYPRKGKQTRQQQEHQKYMVPLQASAQEKNGL
- Km: 3.95 µM
